Data: the supplement of paper PMC9170038

Test system: MS2 coat protein
Experiment: apparent KD of MS2 coat protein; designed switch direction (-1 OFF switch, 1 ON switch): -1; higher = weaker reporter binding
How it was run: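 On Illumina chips, designed RNA switches with common flanks were made by stalled E. coli RNA polymerase. Titrations with SNAP-549-labelled MS2 coat protein, doubling from 0.7 or 1.5 nM to 3 µM, were done with no input, with 200 uM small-molecule ligand, or with an oligonucleotide input. Apparent KD is the median per design over clusters, from curve fits of normalised cluster fluorescence.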

[1] = input ligand: microRNA oligo, concentration not stated
[2] = Eterna round: R95, input ligand: FMN 200 uM
[3] = Eterna round: R95, input ligand: microRNA oligo, concentration not stated
[4] = Eterna round: R95, input ligand: none

Sequence: AAUCGAUCGCCGUACGCACACAUGAGGAUCACCCAUGUAGCUGAGGAUAUCCACCCAUAACGGUCGGAGAAGGCGGGACUGGGA [Eraananbi] (Eterna round: R96, puzzle: Exclusion NG 3)
- apparent KD of MS2 coat protein (input ligand: FMN 200 uM): 30.8 nM
- apparent KD of MS2 coat protein [1]: 11.3 nM
- apparent KD of MS2 coat protein (input ligand: none): 19.1 nM

Sequence: GCACGGAGUGUAGGAUAUCUGUGCGAUUAGCUCAGAGAAGGACAUGAGGAUCACCCAUGUGUGUUCCAAUACUCAAAUCCGUGC [Eli exng1 - 064] (Eterna round: R96, puzzle: Exclusion NG 1)
- apparent KD of MS2 coat protein (input ligand: FMN 200 uM): 710 nM
- apparent KD of MS2 coat protein [1]: 55.4 nM
- apparent KD of MS2 coat protein (input ligand: none): 52.1 nM

Sequence: CGUGUCUUUUACGUGAGUGGUGGGUGCAACAGGUGGGUUACAUGAGGAUCACCCAUGUCCUCACUUGCUCGUCUUUU [Grok-var2-08] (puzzle: Sensor v3, turn-off variant 2)
- apparent KD of MS2 coat protein [2]: 76.7 nM
- apparent KD of MS2 coat protein [3]: 53.5 nM
- apparent KD of MS2 coat protein [4]: 69.8 nM

Sequence: AAGUACCGUCACGAUAGUGAUGGUACAACAAGCAAGUGUACAUGAGGAUCACCCAUGUCCUCUUUUGCUCGUCUUAU [Sensor 3 - 95] (puzzle: Sensor v3, turn-off variant 2)
- apparent KD of MS2 coat protein [2]: 19.7 nM
- apparent KD of MS2 coat protein [3]: 16.9 nM
- apparent KD of MS2 coat protein [4]: 18.6 nM

Sequence: GUGUAGAGAGGAUAUACAUGAGGAUCACCCAUGUGAAUAAGAUAGAAUAAGAUAAAGUGUAGAAGGUUUAGUGU [Excluse me!!! 18 - Jieux - Exclusion 3] (puzzle: Exclusion 3)
- apparent KD of MS2 coat protein [3]: 38.4 nM

Sequence: GGAUCGAAUGUGAGGAUAUGCUGGUCCUUGGAUCAGCAGAAGGCACAUGAGGAUCACCCAUGUGGUUCCGAUCC (Eterna round: R97, puzzle: Brourd's mod of Exclusion 4)
- apparent KD of MS2 coat protein (input ligand: FMN 200 uM): 161 nM
- apparent KD of MS2 coat protein (input ligand: none): 876 nM

Sequence: UUUUUCGAACAAGCUUCGUACAUGAGGAUCACCCAUGUUUUUAGAUUUGAGUAGGUUUGUAUGGAAGUUCGUCUUAU [JR_SV3TOV1_Sub087] (puzzle: Sensor v3, turn-off variant 1)
- apparent KD of MS2 coat protein [2]: 32.3 nM
- apparent KD of MS2 coat protein [3]: 159 nM
- apparent KD of MS2 coat protein [4]: 34.3 nM

Sequence: GCUAAACAAGGAUAUACAUGAGGAUCACCCAUGUAGGCAUAGGGUGAAGCACGCCUAUGUAGAAGGUGUCCGCA [Eternabot (Original) Solution 34] (Eterna round: R97, puzzle: Exclusion 3)
- apparent KD of MS2 coat protein (input ligand: FMN 200 uM): 80.6 nM
- apparent KD of MS2 coat protein (input ligand: none): 185 nM

Sequence: GGCGACCUAGGAUAUACAUGAGGAUCACCCAUGUUUAUCUAAUAGAUGAAGACGGGUUGUAGAAGGAGGAAAAU [Geriin] (puzzle: Exclusion 3)
- apparent KD of MS2 coat protein [3]: 13.1 nM

Sequence: AAAUCGGAGGAGGAUAUCGUACAGGAAACGGUGCGAGAAGGUUUCACAUGAGGAUCACCCAUGUCAAAUAGCGA [EX6 #58] (Eterna round: R97, puzzle: Exclusion 6)
- apparent KD of MS2 coat protein (input ligand: FMN 200 uM): 21 nM
- apparent KD of MS2 coat protein (input ligand: none): 16.4 nM

Sequence: GCGCCAUCGUGAGAUGGCGUACCAACAUGAGGAUCACCCAUGUAGGAUAUCGAUUGCUUUGCAGUCGAGAAGGGCAUGAUAAGU [JL ENG3 3.76] (Eterna round: R96, puzzle: Exclusion NG 3)
- apparent KD of MS2 coat protein [1]: 17.2 nM

Sequence: UGAUCAGACCGAGGAUAUACAUGUAGGACGCACGUGAGUGCGUCCAGUACAUGAGGAUCACCCAUGUAGAAGGCGGUCUGAUCU [JL ENG2 1.95] (Eterna round: R96, puzzle: Exclusion NG 2)
- apparent KD of MS2 coat protein (input ligand: FMN 200 uM): 309 nM
- apparent KD of MS2 coat protein [1]: 78.2 nM
- apparent KD of MS2 coat protein (input ligand: none): 76.1 nM

Sequence: AUAAGCUUUGAGAUCCUUAACAUGAGGAUCACCCAUGUUCGUCUUAUGAUGGUCUGAUCCCUGAGGAUCGGACCGUA [Mat - Sensor v3 - turn-off var 1 - JL Mod - D1] (puzzle: Sensor v3, turn-off variant 1)
- apparent KD of MS2 coat protein [2]: 146 nM
- apparent KD of MS2 coat protein [3]: 28.4 nM
- apparent KD of MS2 coat protein [4]: 186 nM

Sequence: CGGGCAUGAGGAUAUCGAGGUUAGUACAUGAGGAUCACCCAUGUUAUCCAGGUGUCGGUUCGAGAAGGCAUGGCCG [LRO-Ex5-11] (puzzle: Exclusion 5)
- apparent KD of MS2 coat protein [2]: 464 nM
- apparent KD of MS2 coat protein [3]: 230 nM
- apparent KD of MS2 coat protein [4]: 340 nM

Sequence: UUGGUUGUGGUAGGAUAUCCGUUGGAAACUGUUGGAGAAGGACCACAGUCACUGGGUCCUUCUUUGGUGGAGUGGAAGAACCAU [pwkr exNG1 F6.17] (Eterna round: R96, puzzle: Exclusion NG 1)
- apparent KD of MS2 coat protein (input ligand: FMN 200 uM): 131 nM
- apparent KD of MS2 coat protein [1]: 192 nM
- apparent KD of MS2 coat protein (input ligand: none): 167 nM

Sequence: AGGUGUAGAGGAUAUCUCUUCUCUCACAUGAGGAUCACCCAUGUCCUAAAGUCCUAGGAGAGAGAAGGCUACACCA [Omei Ex5 D3] (Eterna round: R97, puzzle: Exclusion 5)
- apparent KD of MS2 coat protein (input ligand: FMN 200 uM): 230 nM
- apparent KD of MS2 coat protein (input ligand: none): 82.8 nM

Sequence: GUAGAGUAAGGAUAUGGUGAAUAGGAUAGAAUGGUUAGAAAUCAGAAGGUACAUGAGGAUCACCCAUGUAAUGU [Excluse me!!!! 15 - Jieux - Exclusion 4] (puzzle: Exclusion 4)
- apparent KD of MS2 coat protein [3]: 21 nM

Sequence: UAAAAGCUAGGAUAUGCAAGGUCCGACAUGAGGAUCACCCAUGUGCUCCUAUGCACAUUUGCAGAAGGAGCGAAAA [EX5 A.6] (Eterna round: R97, puzzle: Exclusion 5)
- apparent KD of MS2 coat protein (input ligand: FMN 200 uM): 537 nM
- apparent KD of MS2 coat protein (input ligand: none): 83 nM

Sequence: CGUACUGAAGUAAGGAUAUUGUCUCGGAUACGAAACAAGAAGGUACAUGAGGAUCACCCAUGUUGACAGUACGA [Malc #30 mod 8] (puzzle: Brourd's mod of Exclusion 4)
- apparent KD of MS2 coat protein [3]: 14 nM

Sequence: AAACAAGAAGGAUAUACAUUAUCGGAUCUUCCGGCAAUGCCACAUGAGGAUCACCCAUGUAGAAGGUCUAAAUU [Ralabi] (puzzle: Exclusion 2)
- apparent KD of MS2 coat protein [3]: 12.3 nM

Sequence: UCUCUUGGGCAAGGAUAUCCUGCGCGGUUCCGGUUCGUGUCUGUCACAUGAGGAUCACCCAUGUGGGAGAAGGUGCCUGCGGUG [Design 75] (Eterna round: R96, puzzle: Exclusion NG 2)
- apparent KD of MS2 coat protein (input ligand: FMN 200 uM): 32.5 nM
- apparent KD of MS2 coat protein [1]: 15.8 nM
- apparent KD of MS2 coat protein (input ligand: none): 17.3 nM

Sequence: UCAAGUAUGUAGGAUAUCGAUGUCUACGGACAUCGAGAAGGACGUACAUGAGGAUCACCCAUGUAACUUGCAUG [Exclusion 6 - B - 10:d] (Eterna round: R96, puzzle: Exclusion 6)
- apparent KD of MS2 coat protein (input ligand: FMN 200 uM): 238 nM
- apparent KD of MS2 coat protein [1]: 144 nM
- apparent KD of MS2 coat protein (input ligand: none): 283 nM

Sequence: GAGUAGUGAGGAUAUGCAAUGAUCAUCGUACGAUGAGGCUGACAUGAGGAUCACCCAUGUAGAAGGCGCUGAUC [EX2 #18] (Eterna round: R97, puzzle: Exclusion 2)
- apparent KD of MS2 coat protein (input ligand: FMN 200 uM): 57.3 nM
- apparent KD of MS2 coat protein (input ligand: none): 75.2 nM

Sequence: AAACGGCGGACCGUGGCUUUUUGCUCGUCUUGUGCUUCGACAUGAGGAUCACCCAUGUGGUGGUGGUCCGUUGUAAA [Grok-var2-15 mod JAL] (puzzle: Sensor v3, turn-off variant 2)
- apparent KD of MS2 coat protein [2]: 48.3 nM
- apparent KD of MS2 coat protein [3]: 40.3 nM
- apparent KD of MS2 coat protein [4]: 80.3 nM

Sequence: GAUGUGGGUUUCCGGAGUAACAUGAGGAUCACCCAUGUAGAAGUUGGAGGGAUCAAGCUUUUUGGUCGUCAUAUGUG [JR_SV3TOV1_Sub052] (puzzle: Sensor v3, turn-off variant 1)
- apparent KD of MS2 coat protein [2]: 288 nM
- apparent KD of MS2 coat protein [3]: 246 nM
- apparent KD of MS2 coat protein [4]: 422 nM

Sequence: GAUCCUCAGACGGACGUCACGAAACAUGAGGAUCACCCAUGUGAGGAUAUCUCCAAAAGGUCGGCAGAGAAGGCACCAUAACAA [Eternabot solution 19] (Eterna round: R96, puzzle: Exclusion NG 3)
- apparent KD of MS2 coat protein (input ligand: FMN 200 uM): 261 nM
- apparent KD of MS2 coat protein [1]: 131 nM
- apparent KD of MS2 coat protein (input ligand: none): 139 nM

Sequence: CCUCGACAUGAGGAUCACCCAUGUCAGGAUAUUGUGUUUUGGGUUUUUUACCUUUUGGCAAGAAGGGAUGUGUG [LRO-Excl1-19] (puzzle: Exclusion 1)
- apparent KD of MS2 coat protein [3]: 14.4 nM

Sequence: AAUUGGUUAGGAUAUCGGGAAUAUCACAUGAGGAUCACCCAUGUGACCUUUAUGGUGUCAUGAGAAGGGACGCGGA [Eternabot (L1) Solution 11] (Eterna round: R97, puzzle: Exclusion 5)
- apparent KD of MS2 coat protein (input ligand: FMN 200 uM): 27.9 nM
- apparent KD of MS2 coat protein (input ligand: none): 24.5 nM

Sequence: CAUGAUUGGCGAGGAUAUUGAUCUAGUUGGCGACGAGAAGGCGCCUGUCACAUGAGGAUCACCCAUGUGAGUCUGGUGGAUGAG [Ex NG1 #87] (Eterna round: R96, puzzle: Exclusion NG 1)
- apparent KD of MS2 coat protein (input ligand: FMN 200 uM): 21.4 nM
- apparent KD of MS2 coat protein [1]: 16.5 nM
- apparent KD of MS2 coat protein (input ligand: none): 20.4 nM

Sequence: AGUAGAUCUACGCUUGCGUGGAUCUGCUAUGCAGGUGUUACAUGAGGAUCACCCAUGUCCUCAUUUGCUCGUCUUAU [JL turnoff v2 99.14] (puzzle: Sensor v3, turn-off variant 2)
- apparent KD of MS2 coat protein [2]: 133 nM
- apparent KD of MS2 coat protein [3]: 356 nM
- apparent KD of MS2 coat protein [4]: 138 nM

Sequence: CGAGCUCAUGUGAGGAUAUACCUAUGGAUACAUAGGUAGAAGGCACAUGAGGAUCACCCAUGUCCUUGAGCUCG [jl-bmx4-4.59 Eli mod] (Eterna round: R97, puzzle: Brourd's mod of Exclusion 4)
- apparent KD of MS2 coat protein (input ligand: FMN 200 uM): 309 nM
- apparent KD of MS2 coat protein (input ligand: none): 50.4 nM

Sequence: CAGUACUGAGGAUAUACAUGAGGAUCACCCAUGUGUGUGAAUUUUAUGUGGUCGUAAUGUAGAAGGCAGUACUG [JR_Ex3_Sub027] (Eterna round: R97, puzzle: Exclusion 3)
- apparent KD of MS2 coat protein (input ligand: FMN 200 uM): 407 nM
- apparent KD of MS2 coat protein (input ligand: none): 86.3 nM

Sequence: UAAUGCAGGUAAAGAUUCUACAUGAGGAUCACCCAUGUGCUCGUCUUAUAAAGUACUAUCACGAAAGUGAUAGUACA [Mat - Sensor v3 - turn-off var 1 - Eli Mod - D101] (puzzle: Sensor v3, turn-off variant 1)
- apparent KD of MS2 coat protein [2]: 27.6 nM
- apparent KD of MS2 coat protein [3]: 220 nM
- apparent KD of MS2 coat protein [4]: 24.8 nM

Sequence: GGUCAGAUGGUAGGAUAUCCAUAUCGAGUGACCCUUUCAUAACAUGAGGAUCACCCAUGUUGGUGGGAGAAGGGCCGUACGGCG [salish99_ExNG02_R04_019] (Eterna round: R96, puzzle: Exclusion NG 2)
- apparent KD of MS2 coat protein (input ligand: FMN 200 uM): 17.2 nM
- apparent KD of MS2 coat protein [1]: 14.4 nM
- apparent KD of MS2 coat protein (input ligand: none): 22 nM
